This note sets out measurements from PMC4365404, “Understanding the effect of alternative splicing in the folding and function of the second PDZ from Protein Tyrosine Phosphatase-BL” (Scientific Reports, 2015).

Broadly, the Kd is the concentration at which binding is half-saturated. For orientation: kon means a measure of how fast the partners come together. As usually defined, the koff is the rate constant with which the complex falls apart.

For one assay, the target named is T1, pWT43 PDZ2as (Mus musculus, UniProt Q64512, INS1372VLFDK/Y1385W).
T1 construct: The second PDZ domain of the protein tyrosine phosphatase BL (PDZ2); made in house
T1 sequence (Q64512 with tags, fused parts or gaps INS1372VLFDK/Y1385W): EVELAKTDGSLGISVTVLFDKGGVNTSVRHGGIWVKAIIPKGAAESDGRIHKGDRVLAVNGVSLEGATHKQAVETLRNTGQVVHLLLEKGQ
Briefly: T-jump kinetic binding of dansylated peptides to pWT43 PDZ2as. The settings on record: 50 mM sodium phosphate pH 7.2, 150 mM KCl; for Kd: 25°C, from T-jump kinetics, read-out: overall KD obtained from kinetic experiments; for kon / koff: T-jump 16 to 25°C, PDZ2as 2 μM, peptide 100 to 400 μM, fluorescence ex 296 nm, 20 traces averaged, pseudo-first order; for kon: read-out: association bimolecular rate constant kon; for koff: read-out: dissociation rate constant koff. On the procedure:
Previous studies have highlighted that the alternative splicing affects remarkably the binding function of the PDZ moiety, by nearly abrogating binding. To address the binding mechanism of pWT43 PDZ2as and its physiological partners, we performed kinetic experiments at 25°C. We carried out kinetic binding experiments by subjecting to temperature jump kinetics a constant concentration of pWT43 PDZ2as (2 μM) in the presence of excess concentrations of dansylated peptides mimicking the PDZ binding motif of APC and RIL; the latter concentrations typically varying from 100 to 400 μM. In particular, individual solutions containing a constant concentration of PDZ2as 2 μM and different concentrations of APC and RIL peptide were prepared and, subsequently, each of these solutions was subjected to a rapid temperature-jump to explore sub-ms relaxation binding kinetics. Under all the explored conditions, the observed time course was satisfactorily fitted by a single-exponential function, without evidence for accumulation of detectable intermediates. Analysis of the pseudo-first order dependence of observed rate constants (Figure 6) yields an association bimolecular rate constant kon of (0.44 ± 0.1) 10^6 s^−1 M^−1 and (0.74 ± 0.1) 10^6 s^−1 M^−1 and a dissociation rate constant koff of 145 ± 10 s^−1 and 120 ± 15 s^−1, respectively for APC and RIL peptides. […] A comparison between the observed kinetics on the light of previously reported structural and kinetic data of pWT43 PDZ2 is briefly discussed below.
Figure 6 Binding properties of pWT43 PDZ2as and of pWT43 PDZ2. Pseudo first order kinetics of the binding between pWT43 PDZ2as (circles) and pWT43 PDZ2 (diamonds) carried out at pH 7.2, 25°C. Data refer to both the APC (open symbols) and RIL (filled symbols) peptide.
Dansylated peptides corresponding to the C-terminus of APC and RIL, sequences D-SYLVTSV and D-EQVSAV, respectively, were purchased from JPT Peptide Technologies (Berlin, Germany); peptides were purified using high-performance liquid chromatography-purified peptide with purity higher than 95%.
Binding experiments were performed mixing a constant concentration of PDZ2as 2 μM with increasing concentrations of the APC or RIL peptide ranging from 100 to 400 μM in 50 mM sodium phosphate pH 7.2, in the presence of 150 mM KCl. The experiments were carried out using a Hi-Tech PTJ-64 capacitor-discharge T-jump apparatus (Hi-Tech, Salisbury, U.K.). Temperature was rapidly changed from 16°C to 25°C with a jump of 9°C. 20 individual traces were averaged at given peptide concentration. The fluorescence change of N-acetyltryptophanamide (NATA) was used in control measurements. Protein concentration was typically […]. The excitation wavelength was 296 nm and the fluorescence emission was measured using a band pass 315 +/− 25 nm glass filter.

For assay [1], the target named is T2, pWT43 PDZ2as, the alternatively spliced form of the second PDZ domain of protein tyrosine phosphatase BL ….
T2 chain: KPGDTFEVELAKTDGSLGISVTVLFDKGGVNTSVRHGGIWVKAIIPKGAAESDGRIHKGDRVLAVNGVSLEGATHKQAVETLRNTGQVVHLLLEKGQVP
Briefly: temperature-jump fluorescence relaxation kinetics; constant pWT43 PDZ2as 2 uM with dansylated peptide 100 to 400 uM (pseudo-first order); 50 mM sodium phosphate pH 7.2, 150 mM KCl; jump from 16 to 25 °C; KD from kinetics. The settings on record: both partners purified.

Where a SMILES comes first, the peptide text is derived from it. Where no end group is shown, it is not given here. The star is where a group is joined. Dansyl = CN(C)c1cccc2c(S(=O)(=O)*)cccc12

On to `CC(C)[C@H](NC(=O)[C@H](C)NC(=O)[C@H](CO)NC(=O)[C@@H](NC(=O)[C@H](CCC(N)=O)NC(=O)[C@H](CCC(=O)O)NS(=O)(=O)c1cccc2c(N(C)C)cccc12)C(C)C)C(=O)O` [RIL] (Dansyl-EQVSAV-OH), for which, at pWT43 PDZ2as, the equilibrium dissociation constant (Kd) turned out to be 162 ± 10 µM, the on-rate (kon) was determined as 740000 ± 100000 M⁻¹ s⁻¹ and the dissociation rate constant (koff) came to 120 ± 15 s⁻¹.

Turning to `CC(C)C[C@H](NC(=O)[C@H](Cc1ccc(O)cc1)NC(=O)[C@H](CO)NS(=O)(=O)c1cccc2c(N(C)C)cccc12)C(=O)N[C@H](C(=O)N[C@H](C(=O)N[C@@H](CO)C(=O)N[C@H](C(=O)O)C(C)C)[C@@H](C)O)C(C)C` [APC] (Dansyl-SYLVTSV-OH), on pWT43 PDZ2as, the Kd amounted to 352 ± 20 µM, the kon came out at 440000 ± 100000 M⁻¹ s⁻¹ and the koff is 145 ± 10 s⁻¹.

B1: Dansylated peptide corresponding to the C-terminus of RIL (D-EQVSAV) (peptide)
peptide: Dansyl-EQVSAV
notes: Which natural protein the peptide comes from is in doubt; also called RIL peptide; source: bought: JPT Peptide Technologies (Berlin, Germany), HPLC-purified, purity higher than 95%
For the molecule B1, in assay [1], the equilibrium dissociation constant (Kd) was 162 ± 10 µM, the “fold decrease of kon against pWT43 PDZ2” value was ~10 fold, the koff worked out at 120 ± 15 s⁻¹ and the association rate constant (kon) was found to be 740000 M⁻¹ s⁻¹.

B2: Dansylated peptide corresponding to the C-terminus of APC (D-SYLVTSV) (peptide)
peptide: Dansyl-SYLVTSV
notes: C-terminus of the tumour suppressor protein APC; the last 7 residues; also called APC peptide; source: bought: JPT Peptide Technologies (Berlin, Germany), HPLC-purified, purity higher than 95%
Take B2: in assay [1], binding was put at a Kd of 352 ± 20 µM, the “fold decrease of kon against pWT43 PDZ2” value is ~10 fold, the off-rate constant (koff) is 145 ± 10 s⁻¹ and the kon was 440000 M⁻¹ s⁻¹.
